Assay results: PMC5600424, “An efficient method for the preparation of preferentially heterodimerized recombinant S100A8/A9 coexpressed in Escherichia coli” (Biochemistry and Biophysics Reports, 2016)

Experiments:
Assay in all cases: SEC; SEC-HPLC (COSMOSIL 5Diol-300-II), 50 mM sodium phosphate buffer pH 6.0, 1.0 mL/min, 30 ug of cation-exchange peak fraction injected; mass estimated with a gel filtration calibration kit
[1] = biological target: T1, human S100A9 (human), P06702; details: remark: other sources report otherwise
T1 chain: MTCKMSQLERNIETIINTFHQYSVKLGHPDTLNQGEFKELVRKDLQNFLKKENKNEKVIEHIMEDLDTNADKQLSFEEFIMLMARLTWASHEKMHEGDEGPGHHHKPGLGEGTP

[2] = biological target: the molecule itself
[3] = biological target: T2, human S100A9 (human, UniProt P06702 1-114); details: both partners purified
T2 construct: human S100A9, UniProt P06702; codon-optimised synthetic gene in pET21a (NdeI/BamHI), expressed without any tags; also called MRP-14
T2 sequence (looked up): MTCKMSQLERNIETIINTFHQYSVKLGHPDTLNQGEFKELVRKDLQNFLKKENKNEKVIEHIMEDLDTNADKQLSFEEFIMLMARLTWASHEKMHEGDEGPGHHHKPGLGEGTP

B1: human S100A9, P06702 1-114 (natural protein)
chain: MTCKMSQLERNIETIINTFHQYSVKLGHPDTLNQGEFKELVRKDLQNFLKKENKNEKVIEHIMEDLDTNADKQLSFEEFIMLMARLTWASHEKMHEGDEGPGHHHKPGLGEGTP
B1 was tested, and the stoichiometry N [1] was 2.

B2: S100A8/A9 heterodimer (complex, human)
chain 1: MLTELEKALNSIIDVYHKYSLIKGNFHAVYRDDLKKLLETECPQYIRKKGADVWFKELDINTDGAVNFQEFLILVIKMGVAAHKKSHEESHKE
chain 2: MTCKMSQLERNIETIINTFHQYSVKLGHPDTLNQGEFKELVRKDLQNFLKKENKNEKVIEHIMEDLDTNADKQLSFEEFIMLMARLTWASHEKMHEGDEGPGHHHKPGLGEGTP
notes: human S100A8, UniProt P05109; as the chain of m1; no tags; human S100A9, UniProt P06702; as the chain of m2; Heterodimer formed during coexpression; used here only for its own association to a higher complex; also called MRP-8/14; calprotectin; source: E. coli T7 Express, coexpressed from pET21-S100A8-S100A9, purified (cation-exchange chromatography, Peak 1)
B2: binds [2].

B3: human S100A8 (natural protein, UniProt P05109 1-93, looked up)
chain: MLTELEKALNSIIDVYHKYSLIKGNFHAVYRDDLKKLLETECPQYIRKKGADVWFKELDINTDGAVNFQEFLILVIKMGVAAHKKSHEESHKE
notes: human S100A8, UniProt P05109; codon-optimised synthetic gene in pET21a (NdeI/BamHI), expressed without any tags; also called MRP-8
For B3, the binding result [3] was “binds” and the “stoichiometry N” value [2] was 2.
